Laboratory results from the nanobody polyreactivity screen of Harvey et al. (2022).

Experiment: yeast display, Sf9 membrane polyspecificity reagent, FACS + sequencing; frameworks hold sequencing errors
Outline: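 A synthetic nanobody library was expressed on Saccharomyces cerevisiae BJ5465 by galactose induction for 36–48 hours. The library was stained for 1 hour at 4 °C with 10% biotinylated, detergent-solubilized Sf9 membrane reagent and enriched with streptavidin microbeads before FACS. Low and high (top ~1%) gates were set on anti-HA fluorescence for expression and streptavidin fluorescence for reagent binding, and each polyreactivity label reflects the gate of origin.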

| Sequence | polyreactivity (PSR sort gate) |
| --- | --- |
| QVQLVESGGGLVQAGGSLRLSCAASGITIKYYTMGWYRQAPGKERELVAAISRSGGSTYYADSVKGRFTISRDNAKNTVYLQMNSLIPEDTAVYYCAAERGAYRGVTFTYGYWGQGTQVTVSS | high polyreactivity |
| QVQLVESGGGLVQAGGSLRLSCAASGITILRYAMGWYRQAPGKERELVARITRSGGSTYYADSVKGRFTISRDNAKNTVYLQMNSLKPEDTAVYYCNDVRSAGDGDYWGQGTQVTVSS | high polyreactivity |
| QVQLVESGGGLVQAGGSLRLSCAASGITINFYAMGWYRQAPGKERELVAAITQSGGSTYYADSVKGRFTISRDNAKNTVYLQMNRLKPEDTAVYYCAAARTGHMYYWGQGTQVTVSS | high polyreactivity |
| QVQLVESGGGLVQAGGSLRLSCAASGITINYYAMGWYRQAPGKERELVATIRSGGGTYYADSVKGRFTISRDNAKNTVYLQMNSLKTEDTAVYYCASYTYPYYRYDYWGQGTQVTVSS | high polyreactivity |
| QVQLVESGGGLVQAGGSLRLSCAASGITIRLYAKGWYRQAPGKERELVAGISSGGSTYYADSVKGRFTISRDNAKNTFYLQMNSLKPEDTAVYYCAAVSYGRRRPQHFEYWGQGTQVTVSS | high polyreactivity |
| QVQLVESGGGLVQAGGSLRLSCAASGITIRRYAMGWYRQAPGKERELVAAISTSGGGTYYADSVKGRFTISRDNAKNTVYLQMNSLKPEDTAVYYCAARYLGYLLSGYPPYDYWGQGSQVTVSS | high polyreactivity |
| QVQLVESGGGLVQAGGSLRLSCAASGITIYDNDMGWYRQAPWKERELVAGITRTTVGTYYADSVKGRFTISRDNAKNTVYLQMNSLKPEDTAVYYCAATSLAGYYQFDYWGQGTQVTVSS | low polyreactivity |
| QVQLVESGGGLVQAGGSLRLSCAASGITLAGYVMGWYRQAPGKERELVADISSSGDSTYYADSVKGRFTISRDNAKNTVYLQMNSLKPEDTAVYYCADEEIIPLIYKGYPFDYWGQGTQVTVSS | low polyreactivity |
| QVQLVESGGGLVQAGGSLRLSCAASGITLATNAMGLYRQAPGKERELVAAINSGGITKYADSVKGRFTISRDNEKNTVYLQMNSLKPEDTAVYYCAADLEPRTNAPGLPTPDGYYWGQGTQVTVSS | low polyreactivity |
| QVQLVESGGGLVQAGGSLRLSCAASGITLDDYAMGWDRQARGKERELVAAISWSGGSTYYADSVKGRFTISRDNAKNTDYLQMNSLKPADTAVYYCAADPPFRYDYWGQGTQVTVSS | low polyreactivity |
| QVQLVESGGGLVQAGGSLRLSCAASGITLDVNAMGWYRQAPGKERELVADITWSDDTTYYADSVKGRFTISRDNAKNTVYLQMNSLKPEDTAVYYCAADVSVSFHPRGYDYWGQGTQVTVSS | low polyreactivity |
| QVQLVESGGGLVQAGGSLRLSCAASGITLHYYAMGWYRQAPGKEREFVAAISWTGGSTYYADSVKGRFTISRDTAKNTVYLQMNSLKPEDTAVYYCAAEGGAFRTYYYWGQGTQVTVSS | high polyreactivity |
| QVQLVESGGGLVQAGGSLRLSCAASGITLIRYAMGWYRQAPGKERELVAAINSSGGNTYYADSVKGRFTISRDNAKNTVYLQMNSLKPEDTAVYYCAAKYILDIIGSLDYWGQGTQVTVSS | low polyreactivity |
| QVQLVESGGGLVQAGGSLRLSCAASGITLKPNAMGWYRQAPGKERELVAAIDSGGSTNYADSVKGRFTISRDNAKNTVYLQMNSLKPEDTAVYYCAAPYQDRDLQVSYSTYEGGYWGQGTQVTVSS | low polyreactivity |
| QVQLVESGGGLVQAGGSLRLSCAASGITLLGNAMGWYRQAPGTERELVAAISRRGGSTYYADSVKGRFTISRDNAKNTVYLQMNSLKPEDTAVYYCAADRYTVVYYRIFDYWGQGTQVTVSS | high polyreactivity |
| QVQLVESGGGLVQAGGSLRLSCAASGITLLYNAMGWSRQAPGKERELVAGITGRGGSTYYADSVKGRFTISRDNAKNTVYLQMNSLKPEDTAVYYCAATTDYRYVGRIVIRDEHWGQGTQVTVSS | low polyreactivity |
| QVQLVESGGGLVQAGGSLRLSCAASGITLLYNAMGWYRQAPGKERELVAGITGRGGSTYYADSVKGRFTISRDNAKNTVYLQMNSLKPEDNAVYYCAATTDYRYVGRIVIRDDHWGHGTQVTVSS | low polyreactivity |
| QVQLVESGGGLVQAGGSLRLSCAASGITLPVYGKGWYRQAPGKERELVAVIDIVGITNYADSVKGRFTISRDNAKNTVYLQMNSLKPEDTAVYYCAKRYVYIADGGEYYYWGQGTQVTVSS | low polyreactivity |
| QVQLVESGGGLVQAGGSLRLSCAASGITLQNNAMGWYRQAPGKERELVAAITGSGGSTYYADSVKGRFTISRDNAKNTVYLQMNSLKPEDTAVYYCATDGIFHLGVYTPYDYWGQGTQVTVSS | low polyreactivity |
| QVQLVESGGGLVQAGGSLRLSCAASGITLQYYAMGWYRQAPGKERQLVAGITSGGGTYYADSVKGRFTISRDNAKNTVYLQMNSLKPEDTAVYYCAARPWRSRYYGGLGRRFDYWGQGTQETVSS | high polyreactivity |
| QVQLVESGGGLVQAGGSLRLSCAASGITLSSNAMGWYRQAPGKERELVAAITWRTDRTYYADSVKGRFTISRDNAKNTVYLQMNSLKPEDTAVDYCAARTTVSSARYDYWGQGTQVTVSS | high polyreactivity |
| QVQLVESGGGLVQAGGSLRLSCAASGITLTPYAMGWYRQAPGKERELVAAISWSGGSTYYADSVKGRFTISRDNAKNTVYLQMNSLKPEDTAVYYCAAGPGQYTVYAGTIGEYDYWGQGTQVTVSS | high polyreactivity |

| Sequence | polyreactivity (PSR sort gate) |
| --- | --- |
| QVQLVESGGGLVQAGGSLRLSCAASGITLVRYAMGWNRKAPGKEREFVASITSGASTNYADSVKGRFTISRYNAKNTVYLQMNSLKPDDTAVYYCAAGPPSGGWWGGWYEYWGQGTQVTVSS | high polyreactivity |
| QVQLVESGGGLVQAGGSLRLSCAASGITLWQYAMGWYRQAPGKERELVAGITDTGDSTYYADSVKGRFTISRDNAKNTVYLQMNSLKPEDTAVYYCAVPRSALLRAPYELYSWGQGTQVTVSS | low polyreactivity |
| QVQLVESGGGLVQAGGSLRLSCAASGITLYGYVMGWYRQAPGKERELVAAISASGGRTHYADSVKGRFTISRDNAKNTVYLQMNSLKPEDTAVYYCARAGSRSPGGYDYWGQGTQVTVSS | high polyreactivity |
| QVQLVESGGGLVQAGGSLRLSCAASGITLYNYAMGWYRQAPGKERELVAAISLSGGRTYYADSVKGRFTISRDNAKNTVYLQMNSLKPEDTAVYYCAADWLNSDPYNYWGQGTQVTVSS | low polyreactivity |
| QVQLVESGGGLVQAGGSLRLSCAASGITLYNYAMGWYRQAPGKERELVAAISLSGGRTYYADSVKGRFTISRDNAKNTVYLQMNSLKPEDTAVYYCAAETDFVWSAPQLAYKVYYWGQGTQVTVSS | low polyreactivity |
| QVQLVESGGGLVQAGGSLRLSCAASGITLYRYVMGWYRQAPGKERELVAAISGRGTSTYYADSVKGRFPISRDNAKNTVYLQMNSLKPEDTAVYYCNAEYTKTGALVIPYTYYYAEDYWGQGTQVTVSS | low polyreactivity |
| QVQLVESGGGLVQAGGSLRLSCAASGITNTHYAMGWYRQAPGKERELVAAITSSGRTYYADSVKGRFTISRDNAKNTVYLQMNSLKPEDTAVYYCAAEHSWYYGLLGYWGQGTQVTVSS | high polyreactivity |
| QVQLVESGGGLVQAGGSLRLSCAASGITSARYAMGWYRQAPGKERELVAAITLSGVRTYYADSVKGRFTISRDQAKNTVYLQMNSLKPEDTAVYYCNTVYYSKWGQGTQVTVSS | low polyreactivity |
| QVQLVESGGGLVQAGGSLRLSCAASGITSDQNAMGWYRQAPGKERELVAAITRGGTTYYADSVKGRFTISRDNAKNTVYLQMNSLKPEDTAVYYCNARYYFRKQVRPFHIRYDYWGQGTQVTVSS | low polyreactivity |
| QVQLVESGGGLVQAGGSLRLSCAASGITSEYNTMGWYRQAPGKERELVAGISYRGGSTYYADSVKGRFTISRDNAKNTVYLQMNSLKPEDTAVYYCAKSFKRWRYGNPDYYWGQGTQVTVSS | high polyreactivity |
| QVQLVESGGGLVQAGGSLRLSCAASGITSGTYAMGWYRQAPGKERELVAGISRSVTRTYYADSVKGRFTISRDNAKNTVYLQMNSLKPEDTAVYYCNTYVVRRPGYGYWGQGTQVTVSS | high polyreactivity |
| QVQLVESGGGLVQAGGSLRLSCAASGITSKQYAMVWYRQAPGKERELVAAISGSGTRTYYADSVKGRFTISRDNAKNTVNLQMNSLKPEDTAVYYCAAYGYSRCHDDWGQVTQVTVSS | high polyreactivity |
| QVQLVESGGGLVQAGGSLRLSCAASGITSQTYAMGWYRQAPGKERELVAGISASGGRTFYADSVKGRFTFSRDHAKNTVYLQMNSLKPEDTAVYYCNKLSSDSYNYWGQGTQVTVSS | high polyreactivity |
| QVQLVESGGGLVQAGGSLRLSCAASGITSSYAMGWYRQAPGKERALVAAISRGGSTYYADSVKGRFTISRDNAKNTVSLQMNSLKPEDTAVYYCNKRRYPYGWGQGTQVTVSS | high polyreactivity |
| QVQLVESGGGLVQAGGSLRLSCAASGITSWYYAMGWYRQAPGKERELVAAITSDGRTNYADSVMGRFTISRDNAKNTVYLQMNSLKPEDTAVYYCAVARYPYRYDYWGQGTQVTVSS | high polyreactivity |
| QVQLVESGGGLVQAGGSLRLSCAASGITSWYYAMGWYRQAPGKERELVAAITSDGSTYYADSVKGRFTISRDNAKNTVYLQMNSLKPEDTAVYYCAAERDYWIPDSYLVGMDYWGQGTQVTVSS | low polyreactivity |
| QVQLVESGGGLVQAGGSLRLSCAASGITVDSNAMGWYRQAPGKDRELVAAISSTGSTDYADSVKGRFTISRDNAKNTVYLQMNSLKPEDTAVYYCAADSRYYYYGYKISGDYDSWGQGTQVTVSS | low polyreactivity |
| QVQLVESGGGLVQAGGSLRLSCAASGITYGRYTMGWYRQAPGKERELVAAITNGDITDYADSVKGRFTISRDNAKNTVYLQMNSLKPEDTAVYYCAALLLYQNDHWGQGTQVTVSS | high polyreactivity |
| QVQLVESGGGLVQAGGSLRLSCAASGITYGTYAMGWYRQAPGKERELVARITGSGGRTYYADSVKGRFTISRDNAKNTVYLQMISLKPEDTAVYYCAAETWRRYLFGYWGQGTQVTVSS | high polyreactivity |
| QVQLVESGGGLVQAGGSLRLSCAASGITYGYYAMGWYRQAPGKERELVATITDGGGTKYADSVKGRFTISRDNAKNTVYLQMNSLKPEDTAVYYCAAGLRHVYATEYDYWGQGTQVTVSS | low polyreactivity |
| QVQLVESGGGLVQAGGSLRLSCAASGIYYNAMGWYRQAPGKERELVAAITTGDRTNYADSVKGRFTISRDNAKNTVYLQMNCLKPEDTAVYYCNAVVERLSSTARDFAYDYWGQGTQVTVSS | low polyreactivity |
